Results: patent US20120237496

T1: Peptide-5 (not fully specified)
T1 chain: CDRVYIHPFHLK

T2: Peptide-6a
T2 chain: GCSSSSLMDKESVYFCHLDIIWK

B1: D1 (protein)
chain: YPYDVPDYAYPYDVPDYAYPYDVPDYAGSYDDGICKSSDCIKSAARLIQNMDATTEPCTDFFKYACGGWLKRNVIPETSSRYGNFDILRDELEVVLKDVLQEPKTEDIVAVQKAKALYRSCINESAIDSRGGEPLLKLLPDIYGWPVATENWEQKYGASWTAEKAIAQLNSKYGKKVLINLFVGTDDKNSVNHVIHIDQPRLGLPSRDYYECTGIYKEACTAYVDFMISVARLIRQEERLPIDENQLALEMNKVMELEKEIANATSKPEDRNDPMLLYNKMTLAQIQNNFSLEINGKPFSWLNFTNEIMSTVNISITNEEDVVVYAPEYLTKLKPILTKYSARDLQNLMSWRFIMDLVSSLSRTYKESRNAFRKALYVTTSETATWRRCANYVNGNMMNAVGRLYVEAAFAGESKHVVEDLIAQIREVFIQTLDDLTWMDAETKKRAEEKALAIKERIGYPDDIVSNDNKLNNEYLELNYKEDEYFENIIQNLKFSQSKQLKKLREKVDKDEWISGAAVVNAFYSSGRNQIVFPAGILQPPFFSAQQSNSLNYGGIGMVIGHEITHGFFDNGRNPNKDDDLVDWWTQQSASNFKEQSQCMVYQYGNFSWDLAGGQHLNGINTLGENIADNGGLGQAYRAYQNYIKKNGEEKLLPGLDLNHKQLFFLNFAQVWCGTYRPEYAVNSIKTDVHSPKNFRIIGTLQNSAEFSEAFHCRKNSYMNPEKKCRVW
B2: D2 (protein)
chain: YPYDVPDYAYPYDVPDYAYPYDVPDYAGSYDDGICKSSDCIKSAARLIQNMDATTEPCTDFFKYACGGWLKRNVIPETSSRYGNFDILRDELEVVLKDVLQEPKTEDIVAVQKAKALYRSCINESAIDSRGGEPLLKLLPDIYGWPVATENWEQKYGASWTAEKAIAQLNSKYGKKVLINLFVGTDDKNSVNHVIHIDQPRLGLPSRDYYECTGIYKEACTAYVDFMISVARLIRQEERLPIDENQLALEMNKVMELEKEIANATAKPEDRNDPMLLYNKMTLAQIQNNFSLEINGKPFSWLNFTNEIMSTVNISITNEEDVVVYAPEYLTKLKPILTKYSARDLQNLMSWRFIMGLVSSLSRTYKESRNAFRKALYVTTSETATWRRCANYVNGNMMNAVGRLYVEAAFAGESKHVVEDLIAQIREVFIQTLDDLTWMDAETKKRAEEKALAIKERIGYPDDIVSNDNKLNNEYLELNYKEDEYFENIIQNLKFSQSKQLKKLREKVDKDEWISGAAVVNAFYSSGRNQIVFPAGILQPPFFSAQQSNSLNYGGIGMVIGHEITHGFFDNGRNPNKDDDLVDWWTQQSASNFKEQSQCMVYQYGNFSWDLAGGQHLNGINTLGENIADNGGLGQAYRAYQNYIKKNGEEKLLPGLDLNHKQLFFLNFAQVWCGTYRPEYAVNSIKTDVHSPKNFRIIGTLQNSAEFSEAFHCRKNSYMNPEKKCRVW

Key:
Peptide-5 = biological target: T1, Peptide-5
Peptide-6a = biological target: T2, Peptide-6a

Protein	activity relative to G399V/G714K (B1) (Peptide-4) [fold]	activity relative to G399V/G714K (B1) (Peptide-5) [fold]	activity relative to G399V/G714K (B1) (Peptide-1) [fold]	activity relative to G399V/G714K (B1) (Peptide-2) [fold]	activity relative to G399V/G714K (B1) (Peptide-6a) [fold]	activity relative to G399V/G714K (B1) (Peptide-7) [fold]
B1	0.95	0.08	1.11	1.24	0.12	0.61
B2	0.9	0.08	0.83	1.06	0.08	0.4
